# Results published in patent US20130012916A1.
# Where “and” joins values, the source holds several entries; their conditions need not be identical. Equal entries are not always repeated.
# B1: Nanobody ALX0081sv1 (vWF0002) (VHH)
# chain: DVQLVESGGGLVQPGGSLRLSCAASGRTFSYNPMGWFRQAPGKGRELVAAISRTGGSTYYPESVEGRFTISRDNAKRTVYLQMNSLRAEDTAVYYCAAAGVRAEQGRVRTLPSEYTFWGQGTQVTVSSAAAEVQLVESGGGLVQPGGSLRLSCAASGRTFSYNPMGWFRQAPGKGRELVAAISRTGGSTYYPESVEGRFTISRDNAKRTVYLQMNSLRAEDTAVYYCAAAGVRAEQGRVRTLPSEYTFWGQGTQVTVSS
# What was measured:
# vWF A1-domain [1] = target: vWF A1-domain (UniProt P04275); assay: SPR (Biacore 3000), vWF A1-domain on CM5 chip, parallel line analysis
# vWF A1-domain [2] = target: vWF A1-domain (UniProt P04275); assay: SPR (Biacore 3000), vWF A1-domain on CM5 chip, parallel line analysis; first of two independent analyses
# vWF A1-domain [3] = target: vWF A1-domain (UniProt P04275); assay: SPR (Biacore 3000), vWF A1-domain on CM5 chip, parallel line analysis; second of two independent analyses
binder,measurement,setting,value
B1,"relative potency versus reference (non lyophilised, stored at -70 C)",vWF A1-domain [1],94.8% and 117% and 93.3%
same,"relative potency versus reference (non lyophilised, stored at -70 C)",vWF A1-domain [2],94.6%
same,"relative potency versus reference (non lyophilised, stored at -70 C)",vWF A1-domain [3],96.1%
